# Measurements reported in US20170281764A1 (JN BIOSCIENCES, published 2017).
# T1: I88A
# T1 construct: also called HA-tagged human TIGIT with mutation I88A, on CHO-K1 cells
# T1 single chain: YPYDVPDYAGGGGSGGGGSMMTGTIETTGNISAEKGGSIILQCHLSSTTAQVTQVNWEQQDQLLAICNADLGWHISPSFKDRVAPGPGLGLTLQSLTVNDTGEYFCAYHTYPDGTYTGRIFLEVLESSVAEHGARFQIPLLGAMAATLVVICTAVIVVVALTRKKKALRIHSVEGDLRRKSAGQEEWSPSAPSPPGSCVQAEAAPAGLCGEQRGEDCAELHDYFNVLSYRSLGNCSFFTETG
# T2: Y92A
# T2 construct: also called HA-tagged human TIGIT with mutation Y92A, on CHO-K1 cells
# T2 single chain: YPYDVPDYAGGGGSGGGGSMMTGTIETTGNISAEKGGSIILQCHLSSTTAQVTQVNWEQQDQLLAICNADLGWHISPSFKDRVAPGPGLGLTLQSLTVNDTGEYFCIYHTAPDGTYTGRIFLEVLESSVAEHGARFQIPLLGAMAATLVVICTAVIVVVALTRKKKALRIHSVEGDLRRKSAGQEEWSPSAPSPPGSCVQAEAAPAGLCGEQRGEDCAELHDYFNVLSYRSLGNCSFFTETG
# T3: L44A
# T3 construct: also called HA-tagged human TIGIT with mutation L44A, on CHO-K1 cells
# T3 single chain: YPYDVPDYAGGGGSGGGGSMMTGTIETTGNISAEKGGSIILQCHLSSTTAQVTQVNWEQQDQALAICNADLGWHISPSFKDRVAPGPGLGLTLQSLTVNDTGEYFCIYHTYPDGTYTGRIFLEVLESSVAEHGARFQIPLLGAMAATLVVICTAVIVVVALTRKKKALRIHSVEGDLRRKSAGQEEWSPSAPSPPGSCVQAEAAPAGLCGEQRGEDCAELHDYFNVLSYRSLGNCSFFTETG
# T4: I47A
# T4 construct: also called HA-tagged human TIGIT with mutation I47A, on CHO-K1 cells
# T4 single chain: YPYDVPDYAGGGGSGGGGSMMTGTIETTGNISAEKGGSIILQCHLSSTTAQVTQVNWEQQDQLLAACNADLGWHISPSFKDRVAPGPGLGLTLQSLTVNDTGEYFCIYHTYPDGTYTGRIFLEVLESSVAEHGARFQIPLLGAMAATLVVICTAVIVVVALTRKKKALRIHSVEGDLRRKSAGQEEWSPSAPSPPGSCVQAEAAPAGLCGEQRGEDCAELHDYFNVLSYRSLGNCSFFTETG
# T5: HA-tagged human TIGIT with mutation D51A, on CHO-K1 cells (human, UniProt Q495A1 22-244)
# T5 construct: Built as for m17
# T5 sequence: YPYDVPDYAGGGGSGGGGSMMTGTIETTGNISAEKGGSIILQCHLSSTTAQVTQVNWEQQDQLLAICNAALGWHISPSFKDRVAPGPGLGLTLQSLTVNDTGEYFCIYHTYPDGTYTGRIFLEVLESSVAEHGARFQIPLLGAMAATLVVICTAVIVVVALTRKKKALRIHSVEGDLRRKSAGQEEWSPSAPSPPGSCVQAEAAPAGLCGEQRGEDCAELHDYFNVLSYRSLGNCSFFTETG
# T6: HA-tagged human TIGIT with mutation H90A, on CHO-K1 cells (human, UniProt Q495A1 22-244)
# T6 construct: Built as for m17
# T6 sequence: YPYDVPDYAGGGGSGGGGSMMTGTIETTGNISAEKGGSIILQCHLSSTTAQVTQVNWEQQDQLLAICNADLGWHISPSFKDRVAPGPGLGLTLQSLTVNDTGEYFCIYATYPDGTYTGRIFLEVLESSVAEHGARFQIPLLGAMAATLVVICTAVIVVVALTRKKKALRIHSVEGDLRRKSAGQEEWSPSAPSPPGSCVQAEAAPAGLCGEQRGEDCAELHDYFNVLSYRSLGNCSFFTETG
# Experiments:
# Assay in all cases: flow cytometry titration on CHO-K1 cells transiently expressing the HA-tagged TIGIT mutant, Alexa488 anti-human IgG detection, four-parameter fit of percent of control, nM is from the concentration axis and paragraph 252
# I88A = target: T1, I88A
# Procedure: (§1) For flow cytometry analysis of the anti-hTIGIT antibody binding epitope, HA-tagged human TIGIT proteins with or without single amino acid mutation were transiently transfected into CHO-K1 cells. After 24 hr, transfected cells were suspended in HBSS buffer (Thermo Fisher Scientific, Cat#14175095), and incubated with HuTIG1-IgG1.AA antibody at varying concentrations in 50 μL volume. After 1 hr incubation at 4° C., cells were washed and a second incubation with 50 μL Alexa488 conjugated anti-human IgG(H+L) secondary antibody (Thermo Fisher Scientific, Cat#A-11013) was performed to detect cells bound by antibody. Cells were incubated with an anti-HA antibody (Sigma, Cat# H7411) as a positive control, and non-transfected CHO-K1 cells were used as a negative control. The cells were analyzed on an Attune NxT Cytometer (Thermo Fisher Scientific) and the data were processed using FlowJo software. For each mutant, the saturating antibody binding MFI (mean fluorescence intensity) were normalized to 100% POC (percent of control), and no primary antibody binding control MFI were normalized to 0% POC. Data were then fit to a four parameter non-linear sigmoidal curve using GraphPad Prism 7 curve fitting using following formula: Y=Bottom+(Top−Bottom)/(1+10^{((Log EC}^₅₀^{-X)*HillSlope)}).
# (§2) All of these residues co-locate to one discrete region on the front ([…] structure of the TIGIT IgV extracellular domain (FIG. 28).
# Y92A = target: T2, Y92A
# Procedure: as §1, §2
# L44A = target: T3, L44A
# Procedure: as §1, §2
# I47A = target: T4, I47A
# Procedure: as §1, §2
# [1] = target: T5, HA-tagged human TIGIT with mutation …
# Procedure: as §1, §2
# [2] = target: T6, HA-tagged human TIGIT with mutation …
# Procedure: as §1, §2
binder,measurement,setting,value
"HuTIG1-IgG1.AA (humanized IgG1/kappa form of TIG1, L234A/L235A) (antibody, Mature full chains; also called humanized TIG1) heavy: not shown light: DIQMTQSPSSLSASVGDRVTITCRASKSISKYLAWYQQKPGKAPKLLIYSGSTLQSGVPSRFSGSGSGTDFTLTISSLQPEDFATYYCQQHNEYPWTFGGGTKVEIKRTVAAPSVFIFPPSDEQLKSGTASVVCLLNNFYPREAKVQWKVDNALQSGNSQESVTEQDSKDSTYSLSSTLTLSKADYEKHKVYACEVTHQGLSSPVTKSFNRGEC",EC50,I88A,0.591 nM
same,EC50,Y92A,2.12 nM
same,EC50,L44A,1.23 nM
same,EC50,I47A,1.27 nM
same,EC50,[1],30.5 nM
same,EC50,[2],104 nM
